The supplement of paper PMC7877785
± gives the uncertainty stated by the source.

Assay: self-splicing fitness, log relative to wild type (ln ratio); higher = more splicing; Tetrahymena group I intron in knt gene, E. coli kanamycin selection, DiMSum; sequences stand for … in CUCUCU…GGAGGGAAAAGUUAUCAGGCAUGCACCUGGUAGCUAGUCUUUAAACCAAUAGAUUGCAUCGGUUUAAAAGGCAAGACCGUCAAAUUGCGGGAAAGGGGUCAACAGCCGUUCAGUACCAAGUCUCAGGGGAAACUUUGAGAUGGCCUUGCAAAGGGUAUGGUAAUAAGCUGACGGACAUGGUCCUAACCACGCAGCCAAGUCCUAAGUCAACAGAUCUUCUGUUGAUAUGGAUGCAGUUCACAGACUAAAUGUCGGUCGGGGAAGAUGUAUUCUUCUCAUAAGAUAUAGUCGGACCUCUCCUUAAUGGGAGCUAGCGGAUGAAGUGAUGCAACACUGGAGCCGCUGGGAACUAAUUUGUAUGCGAAAGUAUAUUGAUUAGUUUUGGAGUACUCGUGGUCG
In short: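 Six replicate transformations of E. coli BL21(DE3) with a pET-22b(+) library were grown overnight at 37°C or 30°C. The library randomised all eight P1ex-region intron nucleotides, the intron lying in the knt kanamycin-resistance gene, and plates were LB agar with or without 25 μg/mL kanamycin plus 100 μg/mL carbenicillin, 50 μM IPTG and 0.2% rhamnose. Pooled colonies were amplicon-sequenced on an Illumina HiSeq 2500, and fitness is the DiMSum error-weighted combination of wild-type-normalised replicate fold changes, kanamycin versus none.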

| Sequence | self-splicing fitness (ln) (30 °C) | self-splicing fitness (ln) (37 °C) |
| --- | --- | --- |
| GCCUAGCAAUAUUACGUCCA | -2.37 ± 0.18 | -1.38 ± 0.18 |
| AAAUAGCAAUAUUACGAACA | -0.981 ± 0.14 | -0.0486 ± 0.12 |
| AUCCAGCAAUAUUACGCACA | -0.451 ± 0.098 | 0.366 ± 0.1 |
| GGUUAGCAAUAUUACGUGCC | -2 ± 0.46 |  |
| UGGCAGCAAUAUUACGGUUG | -1.46 ± 0.07 | -1.04 ± 0.082 |
| CCCCAGCAAUAUUACGUGCA | -4.13 ± 0.18 | -2.17 ± 0.14 |
| AAUCAGCAAUAUUACGUGGU | -1.65 ± 0.088 | -0.981 ± 0.11 |
| CUAGAGCAAUAUUACGAGCA |  | -3.27 ± 0.31 |
| UUUUAGCAAUAUUACGGUGA | -0.38 ± 0.15 | 0.0249 ± 0.14 |
| UGGAAGCAAUAUUACGGUCC | -2.67 ± 0.15 | -1.51 ± 0.14 |
| ACCUAGCAAUAUUACGUGCG | -1.5 ± 0.069 | -0.773 ± 0.077 |
| UCUAAGCAAUAUUACGUAAC | -4.19 ± 0.24 | -2.94 ± 0.24 |
| UUCCAGCAAUAUUACGUAUG | -3.02 ± 0.13 | -1.38 ± 0.14 |
| UUUCAGCAAUAUUACGCGAC | -2.9 ± 0.37 |  |
| AAGUAGCAAUAUUACGGCUU | -1.4 ± 0.12 | -0.634 ± 0.14 |
| AACUAGCAAUAUUACGAAAG | -2.79 ± 0.15 | -1.61 ± 0.18 |
| UAAAAGCAAUAUUACGUGCU | -2.62 ± 0.1 | -1.56 ± 0.11 |
| UACAAGCAAUAUUACGGAAC | -3.75 ± 0.27 | -2.28 ± 0.25 |
| CUAUAGCAAUAUUACGGUAU | -4.43 ± 0.36 | -3.22 ± 0.27 |
| GCGAAGCAAUAUUACGGCGG | -2.38 ± 0.19 | -1.34 ± 0.27 |

| Sequence | self-splicing fitness (ln) (30 °C) | self-splicing fitness (ln) (37 °C) |
| --- | --- | --- |
| CCGGAGCAAUAUUACGGAUA | -2.42 ± 0.2 | -1.18 ± 0.23 |
| CCGAAGCAAUAUUACGCUUG | -3.79 ± 0.33 | -2.26 ± 0.22 |
| GUUUAGCAAUAUUACGUGUU | -2.4 ± 0.13 | -2.35 ± 0.14 |
| GUCCAGCAAUAUUACGGGUU | -1.58 ± 0.07 | -1.03 ± 0.073 |
| GGACAGCAAUAUUACGCUUG | -1.45 ± 0.094 | -0.762 ± 0.11 |
| GGUCAGCAAUAUUACGCGAG | -1.93 ± 0.13 | -0.499 ± 0.13 |
| GACUAGCAAUAUUACGAACG | -1.34 ± 0.11 | -0.144 ± 0.15 |
| AAGCAGCAAUAUUACGCAAG | -2.43 ± 0.19 | -0.222 ± 0.098 |
| GAGCAGCAAUAUUACGGCGU | -0.163 ± 0.14 | 0.683 ± 0.18 |
| CAUCAGCAAUAUUACGCAAG | -0.655 ± 0.065 | -0.304 ± 0.065 |
| GCCCAGCAAUAUUACGACAG | -3.6 ± 0.19 | -1.78 ± 0.14 |
| AUGAAGCAAUAUUACGUUAU | -0.343 ± 0.071 | -0.555 ± 0.096 |
| GCCAAGCAAUAUUACGUAGG | -3.32 ± 0.18 | -1.78 ± 0.17 |
| UCAUAGCAAUAUUACGAACU | -2.36 ± 0.33 | -2.08 ± 0.26 |
| AUUCAGCAAUAUUACGGGCA | -1.47 ± 0.14 | -0.16 ± 0.14 |
| UCUGAGCAAUAUUACGCGAC |  | -2.85 ± 0.48 |
| UCGAAGCAAUAUUACGAAUG | -2.95 ± 0.17 | -1.84 ± 0.19 |
| AUCGAGCAAUAUUACGGCAC | -3.16 ± 0.15 | -1.87 ± 0.16 |
| UACGAGCAAUAUUACGCCUU | -3.54 ± 0.43 |  |
